Experimental data as given in patent US20210172932A1.

Experiments:
[1] = biological target: human FcRn (FCGRT and beta2-microglobulin) on MDCK-hFcRn cells, clone 305-6 (human) (UniProt P55899); assay: cell-based or functional assay
[2] = biological target: human FcRn (FCGRT and beta2-microglobulin) on MDCK-hFcRn cells, clone 305-6 (human) (UniProt P55899); assay: flow cytometry on MDCK-hFcRn cells
[3] = biological target: human FcRn (immobilized on nickel-nitrilotriacetic acid-coated biosensors) (human) (UniProt P55899); assay: FcRn binding at pH 6.0 (BLI)
[4] = biological target: human FcRn (immobilized on nickel-nitrilotriacetic acid-coated biosensors) (human) (UniProt P55899); assay: BLI (Octet RED), FcRn on Ni-NTA biosensor, pH 6.0
[5] = biological target: human FcRn (FCGRT and beta2-microglobulin) on MDCK-hFcRn cells, clone 305-6 (human) (UniProt P55899); assay: flow cytometry, 100 µg/mL on MDCK-hFcRn cells, physiological pH, geometric MFI (No mAb: 94)
[6] = biological target: human FcRn (immobilized on nickel-nitrilotriacetic acid-coated biosensors) (human) (UniProt P55899); assay: BLI, pH 6.0; range of the panel, lower end tied to Nivolumab by Table 1

Row | Substance | Kd [4] [nM] | Transcytosis [1] [ng/mL] | further results
1 | 2H7-DG (antibody) | – | – | Transcytosis (MDCK-hFcRN) [1]: 4.3 ng/mL; Binding to MDCK-hFcRN, MFI [2]: 160 MFI; Kd [3]: 440 nM
2 | 2H7-Man5 (antibody) | – | – | Transcytosis (MDCK-hFcRN) [1]: 10.3 ng/mL; Binding to MDCK-hFcRN, MFI [2]: 207 MFI; Kd [3]: 230 nM
3 | Basiliximab (antibody) | 540 | 14.9 | Transcytosis in MDCK-hFcRn cells [1]: 14.8 ng/mL; Binding to MDCK-FcRn cells, MFI [5]: 203 MFI
4 | Efalizumab (antibody) | – | 8.3 | –
5 | Evolocumab (antibody) | – | 3.6 | –
6 | Golimumab (antibody) | – | 6.8 | –
7 | Nivolumab (antibody) | 250 | 4.3 | Kd [6]: 250 nM
8 | Obinutuzumab (antibody) | – | 4.5 | –
9 | Ofatumumab (antibody) | – | 4.3 | –
10 | Olaratumab (antibody) | 380 | 8.2 | –
11 | Palivizumab (antibody) | 480 | 3.8 | –
12 | Pembrolizumab (antibody) | – | 4.2 | –
13 | Pertuzumab (antibody) | 570 | 6.8 | Transcytosis in MDCK-hFcRn cells [1]: 6.8 ng/mL
14 | Rituximab (antibody) | 460 | 5.6 | –
15 | Vedolizumab (antibody) | – | 4.1 | –

Continued, in another order:

Row | Kd [4] [nM] | Transcytosis [1] [ng/mL] | Substance | further results
16 | 1180 | 4.7 | Adalimumab (antibody) | Transcytosis in MDCK-hFcRn cells [1]: 4.7 ng/mL; Binding to MDCK-FcRn cells, MFI [5]: 183 MFI
17 | – | 9.9 | Alirocumab (antibody) | –
18 | 650 | 3 | Atezolizumab (antibody) | –
19 | 1300 | 7.3 | Avelumab (antibody) | –
20 | 700 | 6 | Durvalumab (antibody) | –
21 | – | 3.6 | Emicizumab (bispecific antibody) | –
22 | – | 5.1 | Ixekizumab (antibody) | –
23 | 280 | 4.9 | Natalizumab (antibody) | –
24 | 450 | 4.8 | Ocrelizumab (antibody) | Transcytosis (MDCK-hFcRN) [1]: 4.8 ng/mL; Transcytosis in MDCK-hFcRn cells [1]: 4.8 ng/mL; Binding to MDCK-FcRn cells, MFI [5]: 101 MFI; Binding to MDCK-hFcRN, MFI [2]: 140 MFI; Kd [3]: 450 nM
25 | 780 | 5 | Panitumumab (antibody) | –
26 | 450 | 3.3 | Reslizumab (antibody) | Transcytosis in MDCK-hFcRn cells [1]: 3.3 ng/mL; Binding to MDCK-FcRn cells, MFI [5]: 93 MFI
27 | – | 5.5 | Tocilizumab (antibody) | –
